Test system: Escherichia coli TOP10
Assay: shrunken log2 fold change of peptide-encoding DNA abundance (4.5 h post-induction vs induction); higher = less antimicrobial activity (less host growth inhibition)
Conditions: time post-induction: 4.5 h; library: site-saturation at positions 5, 18, 19, 20
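Note: peptides expressed intracellularly from a pBAD plasmid library in pooled LB shake-flask culture, induced with 0.3% L-arabinose, DNA abundance read by NGS, three biological replicates, DESeq2 with apeglm shrinkage.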

Row | Sequence | shrunken log2 fold change
1 | RRIRKRPPRLPRPRPRPYRCPRP | -0.12
2 | RRIRARPPRLPRPRPRPRYIPRP | -0.0261
3 | RRIRWRPPRLPRPRPRPYQLPRP | -0.26
4 | RRIRCRPPRLPRPRPRPMQHPRP | -0.173
5 | RRIRTRPPRLPRPRPRPQVEPRP | -0.00619
6 | RRIRNRPPRLPRPRPRPYETPRP | -0.0276
7 | RRIRARPPRLPRPRPRPWFQPRP | 0.0762
8 | RRIRARPPRLPRPRPRPDRLPRP | -0.0424
9 | RRIRFRPPRLPRPRPRPGRFPRP | -0.223
10 | RRIRTRPPRLPRPRPRPNARPRP | -0.0251
11 | RRIRLRPPRLPRPRPRPGVYPRP | -0.221
12 | RRIRDRPPRLPRPRPRPVKLPRP | -0.896
13 | RRIRMRPPRLPRPRPRPSMAPRP | 0.925
14 | RRIRPRPPRLPRPRPRPFWDPRP | -0.465
15 | RRIRHRPPRLPRPRPRPLWGPRP | -0.107
16 | RRIRLRPPRLPRPRPRPPKIPRP | 0.0251
17 | RRIRLRPPRLPRPRPRPQAPPRP | 0.138
18 | RRIRSRPPRLPRPRPRPGWIPRP | 0.0994
19 | RRIRNRPPRLPRPRPRPYMGPRP | -1.97
20 | RRIRGRPPRLPRPRPRPHISPRP | -0.0962
21 | RRIRQRPPRLPRPRPRPAWQPRP | 0.147
22 | RRIRVRPPRLPRPRPRPSSTPRP | -0.398

Row | Sequence | shrunken log2 fold change
23 | RRIRDRPPRLPRPRPRPRMSPRP | -0.149
24 | RRIRFRPPRLPRPRPRPHWMPRP | -0.457
25 | RRIRERPPRLPRPRPRPFKWPRP | -0.0223
26 | RRIRWRPPRLPRPRPRPILYPRP | -0.515
27 | RRIRLRPPRLPRPRPRPFKRPRP | -0.09
28 | RRIRGRPPRLPRPRPRPCAVPRP | 0.66
29 | RRIRDRPPRLPRPRPRPGNCPRP | 0.153
30 | RRIRVRPPRLPRPRPRPYQTPRP | -0.0531
31 | RRIRKRPPRLPRPRPRPAHTPRP | 0.471
32 | RRIRDRPPRLPRPRPRPIFIPRP | -0.345
33 | RRIRGRPPRLPRPRPRPIVLPRP | -0.0411
34 | RRIRIRPPRLPRPRPRPWSRPRP | -0.187
35 | RRIRYRPPRLPRPRPRPQRIPRP | -0.0956
36 | RRIRKRPPRLPRPRPRPVNCPRP | -0.112
37 | RRIRMRPPRLPRPRPRPGEHPRP | 0.987
38 | RRIRGRPPRLPRPRPRPWYCPRP | -0.408
39 | RRIRCRPPRLPRPRPRPYGCPRP | -0.00123
40 | RRIRQRPPRLPRPRPRPDEEPRP | -0.0445
41 | RRIRDRPPRLPRPRPRPTEYPRP | -0.154
42 | RRIRCRPPRLPRPRPRPYYKPRP | -0.992
43 | RRIRERPPRLPRPRPRPVWDPRP | 0.00068
44 | RRIRPRPPRLPRPRPRPYSLPRP | -0.139

Row | Sequence | shrunken log2 fold change
45 | RRIRNRPPRLPRPRPRPFFFPRP | 0.0988
46 | RRIRLRPPRLPRPRPRPDICPRP | -0.102
47 | RRIRIRPPRLPRPRPRPFHVPRP | -0.121
48 | RRIRRRPPRLPRPRPRPLEDPRP | -0.0161
49 | RRIRLRPPRLPRPRPRPARIPRP | 0.00509
50 | RRIRYRPPRLPRPRPRPGASPRP | -0.313
51 | RRIRTRPPRLPRPRPRPHDSPRP | -0.229
52 | RRIRRRPPRLPRPRPRPMLLPRP | -0.0984
53 | RRIRPRPPRLPRPRPRPQNLPRP | -0.0683
54 | RRIRQRPPRLPRPRPRPDDPPRP | -0.0062
55 | RRIRRRPPRLPRPRPRPTTGPRP | -0.00353
56 | RRIRERPPRLPRPRPRPRRGPRP | 0.142
57 | RRIRFRPPRLPRPRPRPMLQPRP | -0.152
58 | RRIRERPPRLPRPRPRPALSPRP | 0.15
59 | RRIRDRPPRLPRPRPRPPGPPRP | 1.9
60 | RRIRERPPRLPRPRPRPRHSPRP | -0.137
61 | RRIRKRPPRLPRPRPRPVSCPRP | 0.129
62 | RRIRTRPPRLPRPRPRPGCMPRP | -0.0219
63 | RRIRIRPPRLPRPRPRPHKNPRP | -0.528
64 | RRIRLRPPRLPRPRPRPCCVPRP | 0.0472
65 | RRIRQRPPRLPRPRPRPNCQPRP | -0.055
66 | RRIRVRPPRLPRPRPRPIMHPRP | -0.156

Row | Sequence | shrunken log2 fold change
67 | RRIRWRPPRLPRPRPRPTLAPRP | 0.754
68 | RRIRVRPPRLPRPRPRPLLWPRP | 0.145
69 | RRIRLRPPRLPRPRPRPHYSPRP | -0.246
70 | RRIRRRPPRLPRPRPRPGLYPRP | 0.305
71 | RRIRGRPPRLPRPRPRPYTAPRP | -0.455
72 | RRIRRRPPRLPRPRPRPMLDPRP | 0.116
73 | RRIRTRPPRLPRPRPRPHHCPRP | -0.12
74 | RRIRDRPPRLPRPRPRPWWFPRP | -0.00226
75 | RRIRTRPPRLPRPRPRPRDGPRP | 0.456
76 | RRIRDRPPRLPRPRPRPKIDPRP | 0.0277
77 | RRIRKRPPRLPRPRPRPTRLPRP | 0.537
78 | RRIRLRPPRLPRPRPRPMKAPRP | -0.0274
79 | RRIRDRPPRLPRPRPRPPLSPRP | 0.0434
80 | RRIRKRPPRLPRPRPRPKSHPRP | 0.0104
81 | RRIRKRPPRLPRPRPRPWYAPRP | -0.132
82 | RRIRMRPPRLPRPRPRPQRQPRP | 0.0595
83 | RRIRERPPRLPRPRPRPKYEPRP | -0.303
84 | RRIRMRPPRLPRPRPRPCGEPRP | 0.967
85 | RRIRPRPPRLPRPRPRPWWIPRP | -0.243
86 | RRIRERPPRLPRPRPRPRCKPRP | -0.0657
87 | RRIRVRPPRLPRPRPRPVFMPRP | -0.113
88 | RRIRHRPPRLPRPRPRPVGSPRP | 0.145

Row | Sequence | shrunken log2 fold change
89 | RRIRFRPPRLPRPRPRPVMGPRP | 0.368
90 | RRIRSRPPRLPRPRPRPIFSPRP | -0.617
91 | RRIRARPPRLPRPRPRPKRMPRP | 0.258
92 | RRIRSRPPRLPRPRPRPYRAPRP | -0.019
93 | RRIRHRPPRLPRPRPRPLFFPRP | -0.171
94 | RRIRIRPPRLPRPRPRPLIDPRP | -0.42
95 | RRIRLRPPRLPRPRPRPGASPRP | 0.642
96 | RRIRLRPPRLPRPRPRPYTGPRP | -0.125
97 | RRIRMRPPRLPRPRPRPMVLPRP | -0.0251
98 | RRIRARPPRLPRPRPRPPPMPRP | 1.1
99 | RRIRQRPPRLPRPRPRPLDIPRP | -0.163
100 | RRIRARPPRLPRPRPRPIIYPRP | -0.249
101 | RRIRKRPPRLPRPRPRPQVNPRP | -0.124
102 | RRIRKRPPRLPRPRPRPGPFPRP | 0.56
103 | RRIRFRPPRLPRPRPRPENVPRP | -0.0124
104 | RRIRPRPPRLPRPRPRPPNGPRP | 0.593
105 | RRIRCRPPRLPRPRPRPVVNPRP | -0.18
106 | RRIRNRPPRLPRPRPRPWPVPRP | -0.153
107 | RRIRQRPPRLPRPRPRPLLMPRP | 0.181
108 | RRIRGRPPRLPRPRPRPIHAPRP | 0.418
109 | RRIRIRPPRLPRPRPRPRNKPRP | -0.0432
